Measured values from article doi:10.1101/2022.09.12.507593 (bioRxiv, 2022).

T1: OGT-TPR not fused to SUMO (aa 2-474 of ncOGT, SUMO tag removed) (human, UniProt O15294-1 2-474)
T1 sequence (looked up): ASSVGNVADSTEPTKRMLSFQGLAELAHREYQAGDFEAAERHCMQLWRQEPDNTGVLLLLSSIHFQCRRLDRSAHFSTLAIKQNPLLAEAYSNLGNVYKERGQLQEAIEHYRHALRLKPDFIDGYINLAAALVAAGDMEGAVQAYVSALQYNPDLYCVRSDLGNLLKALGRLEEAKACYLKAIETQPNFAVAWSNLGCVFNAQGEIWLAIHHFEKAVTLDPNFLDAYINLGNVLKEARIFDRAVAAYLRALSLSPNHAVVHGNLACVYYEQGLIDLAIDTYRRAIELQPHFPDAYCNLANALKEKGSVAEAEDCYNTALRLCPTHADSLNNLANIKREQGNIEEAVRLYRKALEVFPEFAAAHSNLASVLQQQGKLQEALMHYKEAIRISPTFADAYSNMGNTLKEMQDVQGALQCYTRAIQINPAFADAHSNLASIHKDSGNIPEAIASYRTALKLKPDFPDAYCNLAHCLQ

B1: WT FUS LCRN (Fused in sarcoma N-terminal low-complexity region, aa 1-214) (domain or fragment, human, UniProt P35637 1-214, looked up)
chain: MASNDYTQQATQSYGAYPTQPGQGYSQQSSQPYGQQSYSGYSQSTDTSGYGQSSYSSYGQSQNTGYGTQSTPQGYGSTGGYGSSQSSQSSYGQQSSYPGYGQQPAPSSTSGSYGSSSQSSSYGQPQSGSYSQQPSYGGQQQSYGQQQSYNPPQGYGQQNQYNSSSGGGGGGGGGGNYGQDQSSMSSGGGSGGGYGNQDQSGGGGSGGYGQQDRG

Experiments:
[1] = biological target: T1, OGT-TPR not fused to SUMO (aa 2-474 of …); assay: NMR titration
[2] = biological target: B1; assay: NMR titration

| binding result [1] | average peak intensity ratio (plus OGT-TPR/apo) [2] | Binder |
| --- | --- | --- |
| binds | – | B1 |
| – | 0.48 | SUMO-fused TPR region of OGT (OGT-TPR, aa 2-474 of ncOGT) (domain or fragment, human, UniProt O15294-1 2-474, looked up) ASSVGNVADSTEPTKRMLSFQGLAELAHREYQAGDFEAAERHCMQLWRQEPDNTGVLLLLSSIHFQCRRLDRSAHFSTLAIKQNPLLAEAYSNLGNVYKERGQLQEAIEHYRHALRLKPDFIDGYINLAAALVAAGDMEGAVQAYVSALQYNPDLYCVRSDLGNLLKALGRLEEAKACYLKAIETQPNFAVAWSNLGCVFNAQGEIWLAIHHFEKAVTLDPNFLDAYINLGNVLKEARIFDRAVAAYLRALSLSPNHAVVHGNLACVYYEQGLIDLAIDTYRRAIELQPHFPDAYCNLANALKEKGSVAEAEDCYNTALRLCPTHADSLNNLANIKREQGNIEEAVRLYRKALEVFPEFAAAHSNLASVLQQQGKLQEALMHYKEAIRISPTFADAYSNMGNTLKEMQDVQGALQCYTRAIQINPAFADAHSNLASIHKDSGNIPEAIASYRTALKLKPDFPDAYCNLAHCLQ |
